Reference: publication PMC2748697

Biological target: tubulin (bovine, Cytoskeleton) (bovine) (UniProt Q6B856)

For “GST-tagged full-length Capzb2 (1–271) (from UniProt P47757-2 1-272) (natural protein)”, the reduction of the extent of tubulin polymerization at 0.5, 1 and 10 µM Capzb2 (8%, 16%, 35%; none at 0.1 µM) was 35%.
